Test results reported in US20170224836A1 (Novartis, published 2017).
Read-outs that look alike come from different tables or passages of the source.

Assays:
[1] = biological target: T1, hCDH6aa54-615 APPavi (human, UniProt P55285 54-615); assay: SPR binning
T1 sequence: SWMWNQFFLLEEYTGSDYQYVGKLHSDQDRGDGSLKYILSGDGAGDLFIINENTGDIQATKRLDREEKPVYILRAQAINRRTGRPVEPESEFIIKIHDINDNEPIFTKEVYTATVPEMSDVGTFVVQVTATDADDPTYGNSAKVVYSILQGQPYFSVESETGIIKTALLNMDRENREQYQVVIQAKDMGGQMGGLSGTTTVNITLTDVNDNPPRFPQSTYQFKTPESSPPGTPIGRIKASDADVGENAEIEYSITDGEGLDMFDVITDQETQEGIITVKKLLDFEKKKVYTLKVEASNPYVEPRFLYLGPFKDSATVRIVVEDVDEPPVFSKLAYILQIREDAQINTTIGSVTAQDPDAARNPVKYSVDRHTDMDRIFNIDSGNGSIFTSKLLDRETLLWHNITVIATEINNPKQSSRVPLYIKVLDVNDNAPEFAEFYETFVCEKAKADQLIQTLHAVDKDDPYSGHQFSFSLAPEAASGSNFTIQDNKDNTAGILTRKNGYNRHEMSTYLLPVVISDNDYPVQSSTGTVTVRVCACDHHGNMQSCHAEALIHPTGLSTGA

[2] = biological target: T1, hCDH6aa54-615 APPavi; assay: SPR binning; remark: listed apart in the source
[3] = biological target: T1, hCDH6aa54-615 APPavi; assay: SPR binning; remark: listed apart in the source
[4] = biological target: T2, CDH6 wt (human, UniProt P55285 54-615); assay: ELISA on coated CDH6-wt
T2 sequence: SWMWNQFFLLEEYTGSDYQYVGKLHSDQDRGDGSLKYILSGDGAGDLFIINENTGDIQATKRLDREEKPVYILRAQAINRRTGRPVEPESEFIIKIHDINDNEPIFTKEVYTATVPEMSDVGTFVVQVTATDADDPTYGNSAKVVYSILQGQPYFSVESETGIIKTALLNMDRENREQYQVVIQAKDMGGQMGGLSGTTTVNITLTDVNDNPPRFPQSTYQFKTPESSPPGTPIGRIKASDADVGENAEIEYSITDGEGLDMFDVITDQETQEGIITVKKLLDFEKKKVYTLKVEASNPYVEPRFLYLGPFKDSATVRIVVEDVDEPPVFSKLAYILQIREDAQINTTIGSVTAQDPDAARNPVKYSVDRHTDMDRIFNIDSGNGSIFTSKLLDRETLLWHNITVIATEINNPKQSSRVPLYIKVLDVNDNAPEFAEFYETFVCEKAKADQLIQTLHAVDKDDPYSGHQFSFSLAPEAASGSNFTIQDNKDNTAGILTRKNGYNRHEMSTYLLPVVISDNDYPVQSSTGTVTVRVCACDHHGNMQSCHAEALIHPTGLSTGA

[5] = biological target: T1, hCDH6aa54-615 APPavi; assay: SPR binning; remark: listed apart in the source
[6] = biological target: T1, hCDH6aa54-615 APPavi; assay: SPR binning; remark: listed apart in the source
[7] = biological target: T1, hCDH6aa54-615 APPavi; assay: SPR binning; remark: listed apart in the source
[8] = biological target: T1, hCDH6aa54-615 APPavi; assay: SPR binning; remark: listed apart in the source

response of secondary antibody on primary antibody-CDH6 complex [1]: 8.84
response of secondary antibody on primary antibody-CDH6 complex [2]: 21.9
response of secondary antibody on primary antibody-CDH6 complex [3]: 10.6
EC50 (read off the curve) [4]: ~200 nM
response of secondary antibody on primary antibody-CDH6 complex [5]: 15
response of secondary antibody on primary antibody-CDH6 complex [6]: -3.56
response of secondary antibody on primary antibody-CDH6 complex [7]: -2.17
response of secondary antibody on primary antibody-CDH6 complex [8]: 32.7
B1: NOV0710 (antibody, human IgG1, kappa, V domains shown)
VH: QVQLLESGGGLVQPGGSLRLSCAASGFTFSSYAMSWVRQAPGKGLEWVSVIRSSGSSTYYADSVKGRFTISRDNSKNTLYLQMNSLRAEDTAVYYCARGGGYFDYWGQGTLVTVSS
VL: DIQMTQSPSSLSASVGDRVTITCRASQSISLWLNWYQQKPGKAPKLLIYAASTLQSGVPSRFSGSGSGTDFTLTISSLQPEDFATYYCQQYYTSPYTFGQGTKVEIKR
